This note sets out measurements from the RNAGym collection of RNA variant scans (doi:10.7554/elife.80360).

The chains are these.
B1: CPEB3 Ribozyme (parent)
chain: GGGGGCCACAGCAGAAGCGUUCACGUCGCGGCCCCUGUCAGAUUCUGGUGAAUCUGCGAAUUCUGCUGU

Variants of B1 are the subject of the series. The series is described as follows: self-cleavage, relative activity (ratio to wild type); higher = more cleavage; co-transcriptional.
For A51G A59C, the self-cleavage is 0.747.
With A51G A59G, the self-cleavage amounted to 0.963.
With C54A C66G the figure was 0.466; with A51U C57A, 0.374; with G58C U61C, 0.844.
With C54G G68U the figure was 0.993; with G56U A59C, 0.514; with G56U A59U, 0.672.
On to C57U U69C, for which the self-cleavage stood at 0.554.
In the case of A52C C57U, the self-cleavage was found to be 0.398.
With A52C C57A the figure was 0.414; with C54G U64C, 0.542; with C54G U64A, 0.63.
With U53A C66A the figure was 0.509.
As to U55C G65U, the self-cleavage came to 0.495.
As for U55C G65A, the self-cleavage was 0.588.
Regarding C54A G56C, the self-cleavage was 0.431.
Consider G56A G68U, for which the self-cleavage is 1.04.
For the variant G56A G68C, the self-cleavage is 0.992.
U53G A59U: the self-cleavage came to 0.576.
With G56U C66U the figure was 0.872.
Consider G56U C66G, for which the self-cleavage came out at 0.552.
With A51C U67C the figure was 0.943.
Consider C54U U69A, for which the self-cleavage amounted to 1.04.
With G56A U61G the figure was 0.676; with G56A U61C, 0.617; with U55G U64G, 0.491.
With G56C G68C the figure was 0.907; with C54A A59U, 0.497; with C54A A59G, 0.858.
C54A A59C: the self-cleavage was found to be 0.365.
With C57A U62A the figure was 0.32; with G56C G65C, 0.57.
With G56C G65A the figure was 0.459.
A52C U64A: the self-cleavage worked out at 0.875.
With G56U U69G the figure was 1.02; with G58A U67G, 0.988; with C57U A59C, 0.376.
With A52G U61G the figure was 0.861.
With A52G U61A the figure was 0.89; with A52U U67A, 0.978; with U53G U62G, 0.558.
U55G C63U: the self-cleavage stood at 0.626.
As for C54U G58U, the self-cleavage was found to be 1.02.
With U53A C57A the figure was 0.402.
With A52C U53G the figure was 0.788; with U55C A59G, 0.967; with U55C A59C, 0.464.
C54U G65U: the self-cleavage was found to be 0.809.
With U53C U67G the figure was 0.822; with U53C U67C, 0.872; with U53C U67A, 0.793.
Take A52U G58A: the self-cleavage worked out at 0.939.
C54A U67G: the self-cleavage was 0.887.
For C54A U67C, the self-cleavage was 0.887.
Take G58C C66U: the self-cleavage came out at 1.02.
With A51C U55C the figure was 0.678; with A51C U55G, 0.576.
Turning to A51G C57G, the self-cleavage stood at 0.322.
With G56C A59C the figure was 0.403; with G56C A59G, 0.705.
In the case of U53G U67A, the self-cleavage was determined as 0.779.
For the variant U53G U67C, the self-cleavage was determined as 0.901.
Consider U53G U67G, for which the self-cleavage came out at 0.894.
For C57G A59C, the self-cleavage came to 0.3.
With G56C U62G the figure was 0.59.
With A52G G65U the figure was 0.894; with A52G G65C, 0.843.
With A51U G56U, the self-cleavage was 0.879.
With A51U G56C the figure was 0.486.
On to A51U G56A, for which the self-cleavage came out at 0.889.
With G58A the figure was 0.965.
With G58C the figure was 0.985.
For the variant G58C G65C, the self-cleavage worked out at 0.703.
With C54G C66A the figure was 0.514.
Consider C54G C66G, for which the self-cleavage came out at 0.533.
Regarding C57A U61A, the self-cleavage came to 0.428.
With C57A U61G the figure was 0.402.
With A51U U61C the figure was 0.808; with A52G C54G, 0.861; with C54U C63U, 1.02.
With U55G A60G the figure was 0.552.
In the case of U55G A60U, the self-cleavage came out at 0.291.
With U53G C63A, the self-cleavage came out at 0.494.
With U53G C63G the figure was 0.523; with U53G C63U, 0.849; with A51U A52U, 0.96.
With A52C U62G the figure was 0.806; with C57A U64G, 0.384; with A51U G65C, 0.674.
On to G58A U62A, for which the self-cleavage is 0.939.
Regarding G58A U62G, the self-cleavage stood at 0.884.
C54U U61C: the self-cleavage amounted to 0.861.
With G58A U69C the figure was 1.06; with U55G C57A, 0.317; with U53C G58U, 0.965.
Regarding A51U G58C, the self-cleavage worked out at 0.975.
In the case of A51U G58A, the self-cleavage is 0.941.
Regarding A52U G68A, the self-cleavage was 0.975.
With A51C A60C the figure was 0.477; with U53G C57G, 0.403; with C54A U64G, 0.471.
In the case of U53G C66U, the self-cleavage stood at 0.929.
With U53G C66G the figure was 0.647; with G56C U64G, 0.533; with A51G C66U, 0.972.
With A51G C66G the figure was 0.84.
Turning to A51G C66A, the self-cleavage worked out at 0.875.
U53C U69A: the self-cleavage stood at 0.977.
Take U55A C57U: the self-cleavage worked out at 0.369.
As for U55A C57A, the self-cleavage stood at 0.34.
With U55A C57G the figure was 0.33.
With G56A A59C the figure was 0.432; with A52C G56A, 0.826.
With A51U C63A the figure was 0.797; with C57U C63U, 0.34.
With U55G C66G, the self-cleavage was 0.451.
Take C54U U64G: the self-cleavage stood at 0.924.
With C54U U64A, the self-cleavage is 0.905.
With C54U U64C the figure was 0.92.
With A52C U69A the figure was 0.977.
As to A51C U64G, the self-cleavage came to 0.841.
With A52C A59U the figure was 0.68; with A52C G58A, 0.887; with A52C G58C, 0.986.
With U55G U61A, the self-cleavage is 0.497.
On to A52G U55C, for which the self-cleavage was found to be 0.722.
As to C54G G56U, the self-cleavage came to 0.46.
Take G56U G65U: the self-cleavage was determined as 0.468.
With G56U G65A the figure was 0.47; with A52C G68C, 0.978; with A52C G68A, 0.987.
With A52U G56A the figure was 0.909; with A52U G56U, 0.848.
Turning to U55C U64A, the self-cleavage came to 0.567.
With G58C A60U the figure was 0.402; with U55G U62G, 0.381; with A51C C63G, 0.699.
Regarding A51G A52G, the self-cleavage worked out at 0.925.
For A51C C54A, the self-cleavage came out at 0.582.
For A51C U61C, the self-cleavage was found to be 0.796.
As to A51C U61G, the self-cleavage was found to be 0.551.
For U55A U69G, the self-cleavage turned out to be 1.
U53C U61A: the self-cleavage was 0.577.
With U53C U61C, the self-cleavage stood at 0.342.
In the case of G56U U67G, the self-cleavage was 0.945.
Consider G56U U67A, for which the self-cleavage was 0.943.
On to G56U U67C, for which the self-cleavage turned out to be 0.894.
With C54G U67A the figure was 0.938; with U55C G68A, 0.961; with G56A U64C, 0.777.
In the case of G56A U64G, the self-cleavage is 0.828.
For the variant C57G C66U, the self-cleavage was 0.333.
Consider C57G C66G, for which the self-cleavage worked out at 0.39.
With C57G C63U the figure was 0.356; with C57G C63G, 0.285; with A51C U53G, 0.703.
U53A G56A: the self-cleavage was 0.736.
With U53A G56C the figure was 0.411.
As to G56C A60C, the self-cleavage worked out at 0.295.
As for C57U G65U, the self-cleavage stood at 0.375.
With U55G G58U the figure was 0.946.
With C57A U67A the figure was 0.275.
With C57A U67C the figure was 0.25.
For the variant A52C U67C, the self-cleavage was found to be 1.
On to A52C U67G, for which the self-cleavage came out at 1.
As to A52G A60U, the self-cleavage came to 0.506.
